Measured values from publication PMC11919473, “Synthesis and characterisation of DOTA‐kisspeptin‐10 as a potential gallium‐68/lutetium‐177 pan‐tumour radiopharmaceutical” (Journal of Neuroendocrinology, 2025).
Where two headings read alike, the source gives them in different places. Blank lines part the entries; values can stand above or below the compound they belong to.

Key:
KISS1R = biological target: T1, KISS1R (Homo sapiens, UniProt Q969F8); assay: Inositol phosphate (IP) accumulation assay in HEK 293‐T cells transiently transfected with KISS1R; format: cell-based; details: for EC50: HEK 293‐T cells expressing KISS1R
T1 construct: expressed in transfected cells; host or cells: HEK 293-T cells, transient transfection with XtremeGene HP
T1 sequence (Q969F8 whole entry): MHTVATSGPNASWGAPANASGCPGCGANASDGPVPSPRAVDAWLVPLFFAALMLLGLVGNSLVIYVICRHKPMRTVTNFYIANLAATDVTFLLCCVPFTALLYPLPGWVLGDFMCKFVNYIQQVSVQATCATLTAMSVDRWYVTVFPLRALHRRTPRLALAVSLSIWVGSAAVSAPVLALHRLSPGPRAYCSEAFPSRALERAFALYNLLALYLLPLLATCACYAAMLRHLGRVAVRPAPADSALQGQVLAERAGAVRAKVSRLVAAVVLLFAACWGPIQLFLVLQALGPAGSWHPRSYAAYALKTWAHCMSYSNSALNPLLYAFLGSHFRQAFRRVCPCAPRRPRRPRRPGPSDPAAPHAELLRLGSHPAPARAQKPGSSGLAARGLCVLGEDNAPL
Procedure: HEK 293‐T cell culturing and the IP accumulation assay were performed as described by Newton et al.[15], [16] The IP assay measures the response of the cells to ligands that is a measure of the binding affinity and stimulation of intracellular signalling. This assay was applied to determine whether the novel ligand retained the same or improved activity as KP10.
HEK 293‐T cells were cultured and maintained using DMEM (10% FBS) media supplemented with Glutamax at 37°C, 5% CO2 and 95% relative humidity. HEK 293‐T cells were passaged at 90% confluency using Trypsin. HEK 293‐T cells were plated out into 24‐well plates at a density of 1 × 10^5 cells/well. Each well was pre‐coated with Matrigel at a 1:30 dilution to ensure adhesion to the well. KISS1R gene construct was transiently transfected into the HEK 293‐T cells at a concentration of 10 ng/μL of KISS1R using XtremeGene HP (1:2 ratio) DNA transfection reagent. Cells were incubated overnight at 37°C at 5% CO2.
For the IP assay, the HEK 293‐T cells were incubated with myoinositol‐[2‐3H] […] The radiolabelled IPs were separated using a Dowex 100–200 mesh resin ion‐exchange chromatography, and the radioactivity (cpm) was measured using liquid scintillation (Packard Tricarb 2100 TR liquid scintillation analyser TRI‐CARB 4910TR 110 V Liquid Scintillation Counter, Perkin‐Elmer, USA). […] The results were analysed by doing sigmoidal regression to determine the EC 50 and then compared with their respective normalised ligand signalling assay.
The accumulation of the IPs measured for cells transfected with XtremeGene without KISS1R and treated with maximal stimulation of KP10 (1 × 10^−6 M) was subtracted from the measured accumulation of cells stimulated with DOTA‐KP10 over a dose range ([…]–1 × 10^−6 M) that were transfected with KISS1R in the same assay.
For the IP assay, the data were fitted using a nonlinear regression to determine Emax and EC50. Data collected from the ex vivo biodistribution were evaluated using the Kruskal–Wallis analysis. […]

physchem = format: physicochemical
Procedure: The method published by Jain and co‐workers was used.[21] Briefly, 100 μL (± 100 MBq) of the labelled [^68Ga]Ga‐DOTA‐KP10 was dispersed in a 1‐mL phosphate‐buffered saline (PBS) and octanol mixture (0.9:1). The samples were vortexed (1 min) and then centrifuged (5 min, 6000 rpm). A sample (200 μL) from each phase was taken, and the activity was measured in the Hidex AMG automated gamma counter (Turku, Finland). The partition coefficient (log P) was expressed as the logarithm of the ratio of counts from the n‐octanol fraction versus that of the aqueous fraction.[21], [22]

[1] = format: in vitro ADME, human
Procedure: Stability studies were performed in triplicate using [^68Ga]Ga‐DOTA‐KP10 spiked human serum, plasma or whole blood (samples were removed at 5, 60 and 120 min with incubation at 37°C). […] The samples taken (200 μL) at the selected time points were treated with ice‐cold acetonitrile (500 μL) and thereafter filtered with a 0.22‐μm filter to remove all residual proteins in the extract. This sample was then analysed by the HPLC method as described under Section 2.2.4.

in vivo = assay: in vivo; set-up: species or system Sprague–Dawley rats; details: rat; for tissue uptake at 2.5 h: male, Sprague-Dawley, iv, 18.8 MBq, total radioactivity
Procedure: After the final image was acquired (150 min postinjection), the animals were euthanised and ex vivo biodistribution was performed. Euthanasia was performed by an overdose of isoflurane (without waking up post‐scan) followed by decapitation. A quantitative analysis of the radioactivity biodistribution and uptake in various organs of the rats was conducted. Following micro‐PET/CT imaging, the anesthetised animals were euthanised by decapitation and blood was collected into pre‐weighed BD SST vacutainer tubes (thermos Fisher Scientific, Johannesburg, South Africa). The blood samples were centrifuged (6000 rpm, 5 min) to separate the serum from the blood cells. The blood and serum along with the other dissected tissues and organs (heart, liver, spleen, intestines, testes, stomach, lungs and brain) were weighed, and the radioactivity was measured in the automated gamma counter (Hidex AMG, Turku, Finland). The radioactivity per organ was expressed as the percentage injected dose per gram of the organ (% ID/g). […] Data collected from the ex vivo biodistribution were evaluated using the Kruskal–Wallis analysis. A chi‐squared that was less than the H‐statistic was used to indicate significant differences between the concentrations within regions of interest. Organs were measured for activity and expressed as the percentage injected dose per gram of the organ (%ID/g). A multipoint regression model (exponential fit) was used to estimate blood‐half life.

[2] = set-up: species or system Sprague–Dawley rats; details: rat, in vivo, iv
Source text: All procedures followed during the animal studies adhered to institutional and South African national guidelines for the care and use of laboratory animals (SANS10386:2021). Ethical approval for the study was obtained from the Research Animal Ethics Committee of North-West University (NWU-00560-19-S5) and the University of Pretoria (149/2019), South Africa. The animals were provided by the Department of Science and Technology/North-West University Preclinical Drug Development Platform (PCDDP) Vivarium. The study was conducted at the Preclinical Imaging Facility (PCIF) of the Nuclear Medicine Research Infrastructure (NuMeRI), South Africa. Five healthy Sprague-Dawley rats (male, 6-8 weeks, ±200 g) were enrolled into the study. All animals had ad libitum access to a conventional rodent diet and water. Animals were maintained on a 12-h artificial day/night cycle and supplied with corn cob bedding and nesting material for cage enrichment. […] Hybrid images were viewed and analysed using the InterviewFusionTM software (Mediso, Hungary). A qualitative visual analysis was done on all acquisitions, and blood standardized uptake value values were calculated. […] Data collected from the ex vivo biodistribution were evaluated using the Kruskal-Wallis analysis. […] Organs were measured for activity and expressed as the percentage injected dose per gram of the organ (%ID/g). […]

[3] = format: in vitro ADME
Procedure: The protein binding assay was done as described by Mdlophane et al.[18] In brief, [^68Ga]Ga‐DOTA‐KP10 was incubated for 0, 60 and 120 min in serum at 37°C. Proteins were precipitated in ice‐cold acetonitrile (500 μL) and centrifuged (5000 rpm, 10 min). The supernatant was removed, and the protein pellet was washed with acetonitrile (250 μL). The washed protein pellets and supernatants were measured in an automated gamma‐counter (Hidex, Finland).

[4] = format: in vitro ADME, human; remark: listed apart in the source
Procedure: The red blood cell (RBC) binding assay was performed by the method described by Shi and co‐workers.[22] In brief, radiolabelled [^68Ga]Ga‐DOTA‐KP10 (740 kBq in 10 μL) was mixed with 100 μL of human blood drawn up in the presence of heparin. The mixture was incubated in a shaking incubator at 37°C. Samples ([…]) were collected at two time points, 10 and 30 min. Plasma and blood cells were separated by centrifugation (2000 rpm, 5 min). The plasma was removed, and the blood cells were washed twice with 500 μL of normal saline (0.9% NaCl) that was then added to the plasma fraction. The amount (%) of labelled compound that was bound to the RBC was determined by the ratio of distribution between the plasma and blood cell fraction.[22]

Compound: CC(C)C[C@H](NC(=O)CNC(=O)[C@H](Cc1ccccc1)NC(=O)[C@H](CO)NC(=O)[C@H](CC(N)=O)NC(=O)[C@H](Cc1c[nH]c2ccccc12)NC(=O)[C@H](CC(N)=O)NC(=O)[C@@H](N)Cc1ccc(O)cc1)C(=O)N[C@@H](CCCNC(=N)N)C(=O)N[C@@H](Cc1ccccc1)C(N)=O [KP10, kisspeptin‐10]
EC50 (KISS1R; 1 h ligand incubation at 37°C, 10 mM LiCl, mean ± SEM, N = 4, read-out: EC50 Mean nM ± SEM (N = 4)): 1.87 ± 0.095 nM

EC50 (KISS1R; four independent experiments, read-out: EC50): 3.99 nM
Emax (KISS1R; HEK-293T, KP10 maximal response set at 100%, read-out: Maximal response as % of that of KP10): 97.8%
Compound: CC(C)C[C@H](NC(=O)CNC(=O)[C@H](Cc1ccccc1)NC(=O)[C@H](CO)NC(=O)[C@H](CC(N)=O)NC(=O)[C@H](Cc1c[nH]c2ccccc12)NC(=O)[C@H](CC(N)=O)NC(=O)[C@H](Cc1ccc(O)cc1)NC(=O)CN1CCN(CC(=O)O)CCN(CC(=O)O)CCN(CC(=O)O)CC1)C(=O)N[C@@H](CCCNC(=N)N)C(=O)N[C@@H](Cc1ccccc1)C(N)=O [DOTA‐KP10]

Compound: CC(C)C[C@H](NC(=O)CNC(=O)[C@H](Cc1ccccc1)NC(=O)[C@H](CO)NC(=O)[C@H](CC(N)=O)NC(=O)[C@H](Cc1c[nH]c2ccccc12)NC(=O)[C@H](CC(N)=O)NC(=O)[C@H](Cc1ccc(O)cc1)NC(=O)CN1CCN(CC(=O)O)CCN(CC(=O)O)CCN(CC(=O)O)CC1)C(=O)N[C@@H](CCCNC(=N)N)C(=O)N[C@@H](Cc1ccccc1)C(N)=O [[^68Ga]Ga‐DOTA‐KP10, metal not drawn]
logD (physchem): -2
Stability in plasma at 5 min [1]: formation of a degradation product
Stability in whole blood at 5 min [1]: formation of a degradation product
tissue uptake at 2.5 h (in vivo; Ex vivo radioactivity in kidneys): 1.5 ± 0.2 %ID/g
tissue uptake at 2.5 h (in vivo; Ex vivo radioactivity in organs other than kidneys): < 0.5 %ID/g
Serum:blood ratio (in vivo): sixfold to eightfold
Accumulation in the brain or lungs on micro‐PET/CT [2]: no noticeable accumulation
Uptake in the hypothalamus on micro‐PET/CT images [2]: No uptake was observed
Radioactivity bound to plasma proteins after initiating the incubation (0 min) [3]: 28.2 ± 1.35%
Radioactivity bound to plasma proteins at 2 h [3]: 67.99 ± 3.56%
Binding to red blood cells at 10 min [4]: 6.72 ± 0.37%
Binding to red blood cells at 30 min [4]: 6.35 ± 2.7%
